In the assay the target is wild-type T7 DNA polymerase (gp5 with E. coli thioredoxin) (bacteriophage T7 | E. coli) (UniProt P00581).
Sequence of wild-type T7 DNA polymerase (gp5 with E. coli thioredoxin) (bacteriophage T7 | E. coli) (P00581 whole entry, chain 1 of 2): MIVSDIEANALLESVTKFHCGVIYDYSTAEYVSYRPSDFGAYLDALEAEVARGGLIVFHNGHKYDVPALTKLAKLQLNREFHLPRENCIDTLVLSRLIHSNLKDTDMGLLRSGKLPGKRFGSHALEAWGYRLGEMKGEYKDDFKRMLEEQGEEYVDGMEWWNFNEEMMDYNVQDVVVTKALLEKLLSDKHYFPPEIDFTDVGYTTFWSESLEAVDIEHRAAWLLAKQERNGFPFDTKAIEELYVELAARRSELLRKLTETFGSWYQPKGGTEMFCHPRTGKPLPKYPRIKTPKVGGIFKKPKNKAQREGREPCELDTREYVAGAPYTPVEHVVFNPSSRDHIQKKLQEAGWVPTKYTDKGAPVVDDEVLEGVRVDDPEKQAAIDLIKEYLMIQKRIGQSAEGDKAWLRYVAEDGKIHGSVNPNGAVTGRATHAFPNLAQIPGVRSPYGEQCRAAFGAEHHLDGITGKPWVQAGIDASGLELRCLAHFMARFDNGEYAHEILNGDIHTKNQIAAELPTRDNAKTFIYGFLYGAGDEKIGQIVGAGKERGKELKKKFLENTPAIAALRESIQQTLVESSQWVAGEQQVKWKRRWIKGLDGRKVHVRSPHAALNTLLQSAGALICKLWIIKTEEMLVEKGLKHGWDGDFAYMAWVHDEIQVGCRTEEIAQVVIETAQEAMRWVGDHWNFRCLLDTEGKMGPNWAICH
Sequence of wild-type T7 DNA polymerase (gp5 with E. coli thioredoxin) (bacteriophage T7 | E. coli) (P0AA25 whole entry, chain 2 of 2, further chain): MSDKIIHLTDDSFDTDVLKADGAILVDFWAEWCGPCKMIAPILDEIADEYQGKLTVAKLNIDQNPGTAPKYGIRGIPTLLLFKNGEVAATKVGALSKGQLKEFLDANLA

Sequence of wild-type T7 helicase (gp4) (P03692 whole entry): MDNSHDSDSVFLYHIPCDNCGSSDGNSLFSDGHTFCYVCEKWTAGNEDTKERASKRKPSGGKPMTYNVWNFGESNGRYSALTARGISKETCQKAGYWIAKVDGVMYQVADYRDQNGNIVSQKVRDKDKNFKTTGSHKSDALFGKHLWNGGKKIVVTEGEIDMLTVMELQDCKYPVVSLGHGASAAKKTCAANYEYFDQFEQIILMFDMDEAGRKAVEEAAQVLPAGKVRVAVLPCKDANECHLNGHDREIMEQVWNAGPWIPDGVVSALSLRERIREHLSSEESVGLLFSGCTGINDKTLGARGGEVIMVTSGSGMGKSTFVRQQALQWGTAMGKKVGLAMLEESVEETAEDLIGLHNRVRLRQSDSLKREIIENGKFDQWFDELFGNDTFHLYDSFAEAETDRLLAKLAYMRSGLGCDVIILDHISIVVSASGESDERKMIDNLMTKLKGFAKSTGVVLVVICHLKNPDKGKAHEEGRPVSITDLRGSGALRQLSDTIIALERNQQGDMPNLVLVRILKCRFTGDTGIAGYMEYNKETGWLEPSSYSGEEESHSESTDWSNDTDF

As for “wild-type T7 helicase (gp4) (from UniProt P03692 1-566) (enzyme)”, the fraction of single-molecule traces with continued leading-strand synthesis at high rate past a leading-strand CPD lesion, wt DNAP with wt helicase, 6 pN, 0.5 mM dNTP was 28 % of traces.
